# Assay results published in patent US20250197491A1 (MACOMICS, published 2025).
# Where a chain is given by its changes, count along the chain named.
# B1: Antibody 1 (antibody, V domains shown)
# VH: QVQLVESGGGLVKPGGSLRLSCAASGFTFSDYYMSWIRQAPGKGLEWVSYISSSGSIKKYADSVKGRFTISRDNAKNSLYLQMNSLRGEDTAVYYCARTNWHFDYWGQGTLVTVSS
# VL: EIVLTQSPGTLSLSPGERATLSCRASQSVSSSYLAWYQQKPGQAPRLLIFGASTRATGIPDRFSGSGSGTDFTLTISRLEPEDVAVYYCQQYYSTPFTFGPGTKVDIK
# notes: Fully human antibody expressed in CHO; also called Clone 1; Antibody Clone 1
# B2: Antibody 5 (antibody, V domains shown)
# VH: QVQLVESGGGLVKPGGSLRLSCAASGFTFSDYYMTWIRQAPGKGLEWVSYISISGITRYYADSVKGRFTISRDNAKNSLYLQMNSLRAEDTAVYYCARDQTGYFDYWGQGTLVTVSS
# VL: DIVMTQSPATLSVSPGEKTTLSCRASQSFSSNLAWYQQKPGQAPRLLIYGASTRATGIPARFSGSGSGTEFTLTISSLQSEDFAVYYCQQYINWPHTFGQGTKVEIK
# notes: Fully human antibody; IgG4; also called Clone 5; Antibody Clone 5
# B3: Antibody 3 (antibody, V domains shown)
# VH: QVQLVQSGAEVKKPGASVKVSCKASGYTFTSYGISWVRQAPGQGLEWMGWISAYNGNTNYAQKLQGRVTMTTDTSTSTAYMELRSLRSDDTAVYYCARSYSGSHWWFDPWGQGTLVTVSS
# VL: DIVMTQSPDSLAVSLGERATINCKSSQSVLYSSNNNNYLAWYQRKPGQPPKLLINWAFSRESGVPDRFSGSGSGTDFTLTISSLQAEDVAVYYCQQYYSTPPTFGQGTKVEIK
# notes: Fully human antibody; IgG4; also called Clone 3; Antibody Clone 3
# B4: Antibody 4 (antibody, V domains shown)
# VH: B3 VH with H104Y
# VL: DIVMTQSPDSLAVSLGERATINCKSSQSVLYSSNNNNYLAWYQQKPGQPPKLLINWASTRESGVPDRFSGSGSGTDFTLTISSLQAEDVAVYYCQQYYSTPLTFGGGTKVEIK
# notes: Fully human antibody; IgG4; also called Clone 4; Antibody Clone 4
# Biological target: T1, Human LILRB1 (D1-D2) fused to mouse IgG2a Fc (human)
# T1 construct: also called truncated (D1-D2) version of the LILRB1 ecto-domain
# T1 sequence (chain, as listed by the source limits assumed): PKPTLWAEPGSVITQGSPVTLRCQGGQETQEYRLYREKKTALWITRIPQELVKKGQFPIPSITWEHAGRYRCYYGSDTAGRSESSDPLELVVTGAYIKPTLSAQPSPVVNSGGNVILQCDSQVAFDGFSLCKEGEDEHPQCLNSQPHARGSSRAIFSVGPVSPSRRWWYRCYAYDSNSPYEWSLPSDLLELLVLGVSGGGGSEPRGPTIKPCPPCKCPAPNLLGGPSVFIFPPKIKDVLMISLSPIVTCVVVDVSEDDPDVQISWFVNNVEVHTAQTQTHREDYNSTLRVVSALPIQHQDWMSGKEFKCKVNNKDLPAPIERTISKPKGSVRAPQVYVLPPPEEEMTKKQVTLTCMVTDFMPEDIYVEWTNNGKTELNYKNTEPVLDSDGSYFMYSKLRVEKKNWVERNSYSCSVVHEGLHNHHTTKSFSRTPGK
# Experiment: summary table (ELISA); N = No
row,binding result,Binder
1,no binding,B1
2,no binding,B2
3,no binding,B3
4,no binding,B4

# Biological target: T2, human LILRB1 ectodomain fused to mIgG2a Fc (human)
# T2 construct: also called human LILRB1-mIgG2a; full length LILRB1 ectodomain
# T2 sequence (chain, as listed by the source limits assumed): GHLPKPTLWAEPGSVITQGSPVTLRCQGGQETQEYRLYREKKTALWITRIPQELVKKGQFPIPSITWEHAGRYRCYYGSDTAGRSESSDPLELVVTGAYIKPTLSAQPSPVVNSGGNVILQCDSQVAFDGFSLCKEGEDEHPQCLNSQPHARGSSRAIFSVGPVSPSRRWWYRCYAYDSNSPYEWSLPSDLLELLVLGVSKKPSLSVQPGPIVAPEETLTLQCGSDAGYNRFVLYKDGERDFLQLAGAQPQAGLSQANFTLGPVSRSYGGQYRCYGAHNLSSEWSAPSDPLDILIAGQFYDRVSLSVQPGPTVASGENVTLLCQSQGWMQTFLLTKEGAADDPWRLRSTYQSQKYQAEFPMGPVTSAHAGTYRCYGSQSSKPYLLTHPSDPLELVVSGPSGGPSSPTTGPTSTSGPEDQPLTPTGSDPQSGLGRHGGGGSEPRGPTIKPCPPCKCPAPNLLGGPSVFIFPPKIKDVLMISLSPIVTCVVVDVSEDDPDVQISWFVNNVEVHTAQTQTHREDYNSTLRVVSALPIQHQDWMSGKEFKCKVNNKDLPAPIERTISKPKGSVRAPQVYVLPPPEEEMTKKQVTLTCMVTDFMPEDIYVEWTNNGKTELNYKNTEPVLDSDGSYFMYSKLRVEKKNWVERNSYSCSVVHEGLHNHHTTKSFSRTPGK
# Experiment: summary table (ELISA); Y = Yes
row,binding result,Binder
1,binds,B1
2,binds,B2
3,binds,B3
4,binds,B4

# Biological target: T3, Human LILRB1(L68P/A93T) ectodomain fused to mIgG2aFc (human)
# T3 construct: The entry already carries the two substitutions
# T3 sequence (chain, as listed by the source L68P A93T L68P A93T limits assumed): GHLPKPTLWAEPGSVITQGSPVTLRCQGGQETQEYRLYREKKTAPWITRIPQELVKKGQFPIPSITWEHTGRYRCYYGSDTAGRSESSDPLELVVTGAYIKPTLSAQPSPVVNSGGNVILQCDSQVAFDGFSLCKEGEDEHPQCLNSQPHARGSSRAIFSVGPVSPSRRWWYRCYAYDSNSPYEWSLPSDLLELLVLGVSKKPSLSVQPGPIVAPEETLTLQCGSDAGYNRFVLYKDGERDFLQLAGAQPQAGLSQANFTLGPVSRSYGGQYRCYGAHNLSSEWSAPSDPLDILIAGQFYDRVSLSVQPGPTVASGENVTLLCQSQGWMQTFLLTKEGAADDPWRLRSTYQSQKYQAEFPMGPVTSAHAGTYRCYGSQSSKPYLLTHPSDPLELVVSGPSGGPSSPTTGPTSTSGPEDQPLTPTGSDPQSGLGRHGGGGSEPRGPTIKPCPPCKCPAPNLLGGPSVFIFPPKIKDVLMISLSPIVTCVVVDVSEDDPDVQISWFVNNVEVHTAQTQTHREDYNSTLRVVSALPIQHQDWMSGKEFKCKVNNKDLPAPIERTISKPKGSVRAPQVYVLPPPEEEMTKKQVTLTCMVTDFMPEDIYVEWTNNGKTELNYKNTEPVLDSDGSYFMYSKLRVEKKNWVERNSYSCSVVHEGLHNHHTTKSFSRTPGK
# Experiment: ELISA, antigen coated, 10 nM antibody
# Description: (§1) FIG. 3. Mixed LILRB1 and LILRB2 expression in TAMs from melanoma cancer patients. Analysis of LILRB1 and LILRB2 detection in macrophages in pre- and post-anti-PD-1 and/or anti-CTLA-4 therapy treated melanoma patients (n=33) is shown using Smart-seq2 data from Sade-Feldman et al. https://pubmed.ncbi.nlm.nih.gov/30633907/FIG. 4. Binding to domains of human LILRB1. Plates were coated with recombinant full length LILRB1 ectodomain (SEQ ID NO: 41) or a protein comprising domain 1 and 2 of human LILRB1 protein (SEQ ID NO: 42), and then incubated with 10 nM Clones 1-5, Reference Ab 1, and Isotype control. The bound antibodies were detected using HRP-labeled secondary antibodies and the results were plotted on the graph as absorbance measured at 450 nm.
# (§2) Binding to allelic forms of LILRB1. There are 4 major allelic variants of human LILRB1 protein ectodomain. The variants of LILRB1 were expressed as recombinant proteins comprising a modified LILRB1 ectodomain and mouse IgG2 Fc region (SEQ ID NO: 50 and 51) in suspension CHO cells, and purified by using techniques that were known in the art. These recombinant proteins were then used in the direct enzyme-linked immunosorbent assay (ELISA) to determine the antibodies potential to bind different allelic forms of LILRB1. In short, Maxisorp (Nunc) or similar immune-assay plates were coated with solutions of target proteins in PBS, at 4° C., overnight. Plates were then washed with PBS, blocked with 5% milk in PBS, and washed again. Test antibodies diluted in PBS were then added to the plates and incubated at room temperature for at least 1h. Plates were subsequently washed with PBS/0.05% Tween-20 (PBST) and incubated with a solution of horse radish peroxidase (HRP) labelled secondary antibodies at room temperature for at least 1 h. After washing with PBST and PBS, bound antibodies were detected using the 3,3′,5,5;-tetramethylbenzidine (TMB) chromogenic solution. After 5 to 10 minutes, the reaction was stopped with 1% sulphuric acid and absorbance read at 450 nm.
# (§3) There are four major allelic variants within the ecto-domain of LILRB1 in human population [Human Molecular Genetics, 2005, Vol. 14, 2469-2480]; namely c.203T>C (L68P), c.277G>A (A93T), c.425T>C (I142T), and c.464G>T (S155I).
row,binding result,Binder
1,binds,B1
2,binds,B2
3,binds,B3
4,binds,B4

# Biological target: T4, Human LILRB1(I142T/S155I) ectodomain fused to mIgG2aFc (human)
# T4 construct: The entry already carries the two substitutions
# T4 sequence (chain, as listed by the source I142T S155I I142T S155I limits assumed): as the sequence (chain, as listed by the source L68P A93T L68P A93T limits assumed) above, with P45L, T70A, I119T, S132I counted along it
# Experiment: ELISA, antigen coated, 10 nM antibody
# Description: as §1, §2, §3
row,binding result,Binder
1,binds,B1
2,binds,B2
3,binds,B3
4,binds,B4

# Biological target: T5, Human LILRA2 ectodomain (human, UniProt Q8N149 24-449)
# T5 construct: Recombinant protein from a commercial source
# T5 sequence (Q8N149 24-449 S135L): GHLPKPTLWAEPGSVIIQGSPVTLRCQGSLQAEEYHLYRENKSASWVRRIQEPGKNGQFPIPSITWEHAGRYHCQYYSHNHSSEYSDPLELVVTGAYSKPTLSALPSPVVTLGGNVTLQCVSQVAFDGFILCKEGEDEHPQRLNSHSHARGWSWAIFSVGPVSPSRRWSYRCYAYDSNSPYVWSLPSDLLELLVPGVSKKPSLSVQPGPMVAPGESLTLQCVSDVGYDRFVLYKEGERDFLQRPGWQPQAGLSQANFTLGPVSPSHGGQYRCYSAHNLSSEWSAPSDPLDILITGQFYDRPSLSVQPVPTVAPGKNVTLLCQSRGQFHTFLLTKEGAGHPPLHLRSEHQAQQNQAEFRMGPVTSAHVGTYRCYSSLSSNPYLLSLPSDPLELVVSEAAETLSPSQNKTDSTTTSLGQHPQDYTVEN
# Experiment: summary table (single point ELISA); N = No
row,binding result,Binder
1,no binding (tested: 1 nM),B1
2,no binding (tested: 1 nM),B2
3,no binding (tested: 1 nM),B3
4,no binding (tested: 1 nM),B4

# Biological target: LILRB4 recombinant, full-length ectodomain (LILRB4 17-257) (human, UniProt Q8NHJ6 22-257)
# Experiment: summary table (single point ELISA); N = No
row,binding result,Binder
1,no binding (tested: 1 nM),B1
2,no binding (tested: 1 nM),B2
3,no binding (tested: 1 nM),B3
4,no binding (tested: 1 nM),B4

# Biological target: LILRB5 recombinant, full-length ectodomain (LILRB5 18-456) (human, UniProt O75023 24-456)
# Sequence (O75023 24-456 limits assumed): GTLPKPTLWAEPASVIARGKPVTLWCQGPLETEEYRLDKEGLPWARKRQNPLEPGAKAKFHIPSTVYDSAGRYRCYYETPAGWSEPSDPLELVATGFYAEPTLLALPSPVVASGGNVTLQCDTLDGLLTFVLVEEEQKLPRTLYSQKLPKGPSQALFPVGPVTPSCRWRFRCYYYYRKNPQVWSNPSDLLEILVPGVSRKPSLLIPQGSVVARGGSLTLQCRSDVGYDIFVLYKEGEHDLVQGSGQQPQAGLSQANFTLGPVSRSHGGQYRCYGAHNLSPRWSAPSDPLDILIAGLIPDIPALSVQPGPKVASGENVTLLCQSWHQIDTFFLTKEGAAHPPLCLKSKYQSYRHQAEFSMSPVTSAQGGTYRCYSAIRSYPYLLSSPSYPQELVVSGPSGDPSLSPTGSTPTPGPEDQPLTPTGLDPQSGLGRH
# Experiment: summary table (single point ELISA); N = No
row,binding result,Binder
1,no binding (tested: 1 nM),B1
2,no binding (tested: 1 nM),B2
3,no binding (tested: 1 nM),B3
4,no binding (tested: 1 nM),B4

# Biological target: LILRA5 recombinant, full-length ectodomain (LILRA5 42-268) (human, UniProt A6NI73 42-268)
# Sequence (A6NI73 42-268): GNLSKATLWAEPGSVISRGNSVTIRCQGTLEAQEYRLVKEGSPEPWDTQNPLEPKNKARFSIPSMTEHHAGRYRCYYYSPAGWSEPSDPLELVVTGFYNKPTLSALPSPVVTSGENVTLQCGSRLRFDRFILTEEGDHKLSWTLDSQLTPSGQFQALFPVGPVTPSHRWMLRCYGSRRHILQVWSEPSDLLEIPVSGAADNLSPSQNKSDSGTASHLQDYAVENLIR
# Experiment: summary table (single point ELISA); N = No
row,binding result,Binder
1,no binding (tested: 1 nM),B1
2,no binding (tested: 1 nM),B2
3,no binding (tested: 1 nM),B3
4,no binding (tested: 1 nM),B4

# Biological target: T6, Rhesus monkey (Macaca mulatta) LILRB ectodomain fused to mIgG2a Fc (rhesus monkey (Macaca mulatta))
# T6 construct: also called rhesus LILRB-mIgG2a; rhesus LILRB protein
# T6 sequence (chain, as listed by the source limits assumed): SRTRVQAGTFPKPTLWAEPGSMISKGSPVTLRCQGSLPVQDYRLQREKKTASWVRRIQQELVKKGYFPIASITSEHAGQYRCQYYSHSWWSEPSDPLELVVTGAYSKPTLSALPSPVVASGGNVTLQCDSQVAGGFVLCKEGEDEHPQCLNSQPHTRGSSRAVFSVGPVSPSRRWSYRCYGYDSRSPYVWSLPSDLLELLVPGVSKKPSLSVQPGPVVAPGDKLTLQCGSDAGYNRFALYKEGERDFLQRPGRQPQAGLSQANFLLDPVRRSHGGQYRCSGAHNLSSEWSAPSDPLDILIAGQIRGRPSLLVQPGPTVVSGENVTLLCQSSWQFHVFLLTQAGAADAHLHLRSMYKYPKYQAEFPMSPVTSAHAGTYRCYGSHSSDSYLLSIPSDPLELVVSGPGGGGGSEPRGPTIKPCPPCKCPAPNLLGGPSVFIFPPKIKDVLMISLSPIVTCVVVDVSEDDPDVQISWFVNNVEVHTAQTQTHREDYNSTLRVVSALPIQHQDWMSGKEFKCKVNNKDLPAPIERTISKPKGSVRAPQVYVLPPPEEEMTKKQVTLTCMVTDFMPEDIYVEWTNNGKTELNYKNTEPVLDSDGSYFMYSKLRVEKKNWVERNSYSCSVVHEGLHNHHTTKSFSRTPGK
# Experiment: summary table (ELISA); Rhesus & Cyno LILRB1/2 binding; Y = Yes
row,binding result,Binder
1,binds,B1
2,binds,B2
3,binds,B3
4,binds,B4

# Biological target: T7, Cynomolgus monkey (Macaca fascicularis) LILRB ectodomain fused to mIgG2a (cynomolgus monkey (Macaca fascicularis))
# T7 construct: also called cynomolgus LILRB protein
# T7 sequence (chain, as listed by the source limits assumed): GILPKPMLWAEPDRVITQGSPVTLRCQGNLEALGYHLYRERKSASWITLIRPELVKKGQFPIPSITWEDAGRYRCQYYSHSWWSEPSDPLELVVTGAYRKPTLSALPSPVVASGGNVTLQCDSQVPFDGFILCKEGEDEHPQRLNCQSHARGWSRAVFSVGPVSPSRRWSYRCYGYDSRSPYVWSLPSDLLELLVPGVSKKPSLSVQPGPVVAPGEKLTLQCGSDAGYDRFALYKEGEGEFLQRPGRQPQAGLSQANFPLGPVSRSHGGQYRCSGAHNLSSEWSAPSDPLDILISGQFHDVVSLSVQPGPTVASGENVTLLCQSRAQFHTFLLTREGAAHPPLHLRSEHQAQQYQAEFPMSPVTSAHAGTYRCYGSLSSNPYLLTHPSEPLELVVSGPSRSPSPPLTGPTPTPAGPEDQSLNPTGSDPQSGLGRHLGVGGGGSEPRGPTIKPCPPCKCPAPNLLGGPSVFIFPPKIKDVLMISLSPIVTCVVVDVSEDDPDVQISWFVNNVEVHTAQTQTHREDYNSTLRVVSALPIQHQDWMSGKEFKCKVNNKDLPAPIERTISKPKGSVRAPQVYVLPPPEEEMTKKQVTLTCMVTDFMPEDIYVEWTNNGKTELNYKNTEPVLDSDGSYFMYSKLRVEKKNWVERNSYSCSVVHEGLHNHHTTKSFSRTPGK
# Experiment: as above
row,binding result,Binder
1,binds,B1
2,binds,B2
3,binds,B3
4,binds,B4

# Biological target: human LILRB1 (coated on plates in the competition ELISA) (human, UniProt Q8NHL6 24-461, limits assumed)
# Sequence (Q8NHL6 24-461 limits assumed): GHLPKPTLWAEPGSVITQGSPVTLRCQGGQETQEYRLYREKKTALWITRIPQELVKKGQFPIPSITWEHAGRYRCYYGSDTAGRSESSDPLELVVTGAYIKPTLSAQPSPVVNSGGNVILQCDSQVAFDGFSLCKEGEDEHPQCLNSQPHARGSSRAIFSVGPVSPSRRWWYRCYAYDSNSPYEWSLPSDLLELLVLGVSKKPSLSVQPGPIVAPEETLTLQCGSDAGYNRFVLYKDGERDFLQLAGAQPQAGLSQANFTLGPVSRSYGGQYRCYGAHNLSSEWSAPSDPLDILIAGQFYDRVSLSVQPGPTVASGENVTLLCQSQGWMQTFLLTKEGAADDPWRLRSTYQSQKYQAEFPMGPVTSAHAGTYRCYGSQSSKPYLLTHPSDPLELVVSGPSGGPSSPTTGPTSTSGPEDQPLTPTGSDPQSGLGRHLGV
# Experiment: competition ELISA on coated human LILRB1; competitor 5 nM biotinylated Antibody 2
# Method: FIG. 33. Cross-competition between Antibody (Clone) 2 and other Abs in ELISA. Plates were coated with human LILRB1 and, after blocking, incubated with 5 nM of biotinylated Clone 2 and different concentrations of unlabelled Clones 1-5 and the Reference 1-3 Abs. Bound biotinylated Clone 2 was detected using HRP-conjugated streptavidin and a chromogenic substrate. Unlabelled Clone 2 competed its biotinylated counterpart with low nM IC₅₀, while Clones 1, 3, 4 and 5 each yielded IC₅₀ of about 10 nM. None of the Reference Abs, nor the isotype control, could compete with Antibody 2 up to 250 nM concentrations.
# Antibodies 1 to 5 were all found to bind within the D3-D4 fragment of human LILRB1. To investigate if Antibody 2 binds to an epitope similar to or different from the epitope of the other Antibodies (and Reference Antibodies) a competitive ELISA was performed. Plates were coated with human LILRB1 and after blocking incubated with 5 nM of biotinylated Antibody 2 and different concentrations of each unlabelled Antibody 1-5 and the Reference Antibodies 1 to 3. Bound biotinylated Antibody 2 was detected using HRP-conjugated streptavidin and a chromogenic substrate. Unlabelled Antibody 2 competed its biotinylated counterpart with low nM IC₅₀, while Antibodies 1, 3, 4 and 5 yielded IC₅₀ about 10 nM. None of the Reference Abs nor the isotype control could compete with Antibody 2 up to 250 nM concentrations.
row,IC50,Binder
1,~10 nM,B1
2,~10 nM,B2
3,~10 nM,B3
4,~10 nM,B4
